Experimental data: patent US20130315910A1 (Xencor, published 2013)

T1: human FcγRIIb receptor protein (R&D Systems) (human, UniProt P31994 46-217)
T1 construct: Bought protein injected over captured antibody in Biacore; also called CD32b
T1 sequence (looked up): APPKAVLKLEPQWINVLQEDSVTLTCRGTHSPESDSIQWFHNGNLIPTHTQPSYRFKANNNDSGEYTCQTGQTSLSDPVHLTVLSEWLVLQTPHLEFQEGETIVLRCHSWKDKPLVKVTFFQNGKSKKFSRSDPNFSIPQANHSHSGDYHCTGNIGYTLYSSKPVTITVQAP

T2: mFcγRIIb (Mus musculus, UniProt P08101)
T2 construct: extracellular region, C-terminal His- and GST-tag; also called mouse FcγRII
T2 sequence (receptor extracellular region, looked up): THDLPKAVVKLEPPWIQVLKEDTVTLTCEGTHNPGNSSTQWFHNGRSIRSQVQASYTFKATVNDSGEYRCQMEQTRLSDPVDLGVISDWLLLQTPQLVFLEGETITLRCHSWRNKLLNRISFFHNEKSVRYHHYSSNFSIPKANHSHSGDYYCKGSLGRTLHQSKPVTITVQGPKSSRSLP

T3: cynoFcγRIIb (Macaca fascicularis, UniProt A0A140HDP4)
T3 construct: extracellular region, C-terminal His- and GST-tag; also called cynomolgus monkey FcγRIIb
T3 sequence (receptor extracellular region): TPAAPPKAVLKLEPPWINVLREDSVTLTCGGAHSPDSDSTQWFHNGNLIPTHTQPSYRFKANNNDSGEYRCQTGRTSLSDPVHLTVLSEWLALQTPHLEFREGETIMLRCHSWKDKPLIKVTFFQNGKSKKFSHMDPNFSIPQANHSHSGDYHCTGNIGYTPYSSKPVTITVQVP


Key:
Assay in all cases: SPR
[1] = target: T1, human FcγRIIb receptor protein (R&D …)
mFcγRIIb = target: T2, mFcγRIIb
cynoFcγRIIb = target: T3, cynoFcγRIIb

Fold vs WT IgG1 [1] [fold]	Kd [1] [nM]	Fold vs WT IgG1 (Kd) (mFcγRIIb) [fold]	Fold vs WT IgG1 (Kd) (cynoFcγRIIb) [fold]	binding result [1]	Binder
39.8	36.9	4.26	7.46	–	H268D/L328W/I332E (antibody, human IgG1, kappa, HuAM4G7 anti-CD19 IgG1 (m1) with these Fc substitutions, EU index; copies: 2 + 2) heavy: EVQLVESGGGLVKPGGSLKLSCAASGYTFTSYVMHWVRQAPGKGLEWIGYINPYNDGTKYNEKFQGRVTISSDKSISTAYMELSSLRSEDTAMYYCARGTYYYGTRVFDYWGQGTLVTVSSASTKGPSVFPLAPSSKSTSGGTAALGCLVKDYFPEPVTVSWNSGALTSGVHTFPAVLQSSGLYSLSSVVTVPSSSLGTQTYICNVNHKPSNTKVDKKVEPKSCDKTHTCPPCPAPELLGGPSVFLFPPKPKDTLMISRTPEVTCVVVDVSDEDPEVKFNWYVDGVEVHNAKTKPREEQYNSTYRVVSVLTVLHQDWLNGKEYKCKVSNKAWPAPEEKTISKAKGQPREPQVYTLPPSREEMTKNQVSLTCLVKGFYPSDIAVEWESNGQPENNYKTTPPVLDSDGSFFLYSKLTVDKSRWQQGNVFSCSVMHEALHNHYTQKSLSLSPGK light: DIVMTQSPATLSLSPGERATLSCRSSKSLQNVNGNTYLYWFQQKPGQSPQLLIYRMSNLNSGVPDRFSGSGSGTEFTLTISSLEPEDFAVYYCMQHLEYPITFGAGTKLEIKRTVAAPSVFIFPPSDEQLKSGTASVVCLLNNFYPREAKVQWKVDNALQSGNSQESVTEQDSKDSTYSLSSTLTLSKADYEKHKVYACEVTHQGLSSPVTKSFNRGEC
–	–	0.549	2.85	no binding	S298M (antibody, human IgG1, kappa, HuAM4G7 anti-CD19 IgG1 (m1) with this Fc substitution, EU index; copies: 2 + 2) heavy: not shown light: DIVMTQSPATLSLSPGERATLSCRSSKSLQNVNGNTYLYWFQQKPGQSPQLLIYRMSNLNSGVPDRFSGSGSGTEFTLTISSLEPEDFAVYYCMQHLEYPITFGAGTKLEIKRTVAAPSVFIFPPSDEQLKSGTASVVCLLNNFYPREAKVQWKVDNALQSGNSQESVTEQDSKDSTYSLSSTLTLSKADYEKHKVYACEVTHQGLSSPVTKSFNRGEC
1.91	767	2.79	2.92	–	H268D/L328Y (antibody, human IgG1, kappa, HuAM4G7 anti-CD19 IgG1 (m1) with these Fc substitutions, EU index; copies: 2 + 2) heavy: not shown light: DIVMTQSPATLSLSPGERATLSCRSSKSLQNVNGNTYLYWFQQKPGQSPQLLIYRMSNLNSGVPDRFSGSGSGTEFTLTISSLEPEDFAVYYCMQHLEYPITFGAGTKLEIKRTVAAPSVFIFPPSDEQLKSGTASVVCLLNNFYPREAKVQWKVDNALQSGNSQESVTEQDSKDSTYSLSSTLTLSKADYEKHKVYACEVTHQGLSSPVTKSFNRGEC
–	–	0.208	0.04	no binding	S298L (antibody, human IgG1, kappa, HuAM4G7 anti-CD19 IgG1 (m1) with this Fc substitution, EU index; copies: 2 + 2) heavy: not shown light: DIVMTQSPATLSLSPGERATLSCRSSKSLQNVNGNTYLYWFQQKPGQSPQLLIYRMSNLNSGVPDRFSGSGSGTEFTLTISSLEPEDFAVYYCMQHLEYPITFGAGTKLEIKRTVAAPSVFIFPPSDEQLKSGTASVVCLLNNFYPREAKVQWKVDNALQSGNSQESVTEQDSKDSTYSLSSTLTLSKADYEKHKVYACEVTHQGLSSPVTKSFNRGEC

The remaining lines, values behind:

Binder	Fold vs WT IgG1 [1] [fold]	Kd [1] [nM]	Fold vs WT IgG1 (Kd) (mFcγRIIb) [fold]	Fold vs WT IgG1 (Kd) (cynoFcγRIIb) [fold]	binding result [1]
S239D/L328Y/I332E (antibody, human IgG1, kappa, HuAM4G7 anti-CD19 IgG1 (m1) with these Fc substitutions, EU index; copies: 2 + 2) heavy: EVQLVESGGGLVKPGGSLKLSCAASGYTFTSYVMHWVRQAPGKGLEWIGYINPYNDGTKYNEKFQGRVTISSDKSISTAYMELSSLRSEDTAMYYCARGTYYYGTRVFDYWGQGTLVTVSSASTKGPSVFPLAPSSKSTSGGTAALGCLVKDYFPEPVTVSWNSGALTSGVHTFPAVLQSSGLYSLSSVVTVPSSSLGTQTYICNVNHKPSNTKVDKKVEPKSCDKTHTCPPCPAPELLGGPDVFLFPPKPKDTLMISRTPEVTCVVVDVSHEDPEVKFNWYVDGVEVHNAKTKPREEQYNSTYRVVSVLTVLHQDWLNGKEYKCKVSNKAYPAPEEKTISKAKGQPREPQVYTLPPSREEMTKNQVSLTCLVKGFYPSDIAVEWESNGQPENNYKTTPPVLDSDGSFFLYSKLTVDKSRWQQGNVFSCSVMHEALHNHYTQKSLSLSPGK light: DIVMTQSPATLSLSPGERATLSCRSSKSLQNVNGNTYLYWFQQKPGQSPQLLIYRMSNLNSGVPDRFSGSGSGTEFTLTISSLEPEDFAVYYCMQHLEYPITFGAGTKLEIKRTVAAPSVFIFPPSDEQLKSGTASVVCLLNNFYPREAKVQWKVDNALQSGNSQESVTEQDSKDSTYSLSSTLTLSKADYEKHKVYACEVTHQGLSSPVTKSFNRGEC	7.41	198	1.7	5.12	–
S239D/S267E/I332E (antibody, human IgG1, kappa, HuAM4G7 anti-CD19 IgG1 (m1) with these Fc substitutions, EU index; copies: 2 + 2) heavy: EVQLVESGGGLVKPGGSLKLSCAASGYTFTSYVMHWVRQAPGKGLEWIGYINPYNDGTKYNEKFQGRVTISSDKSISTAYMELSSLRSEDTAMYYCARGTYYYGTRVFDYWGQGTLVTVSSASTKGPSVFPLAPSSKSTSGGTAALGCLVKDYFPEPVTVSWNSGALTSGVHTFPAVLQSSGLYSLSSVVTVPSSSLGTQTYICNVNHKPSNTKVDKKVEPKSCDKTHTCPPCPAPELLGGPDVFLFPPKPKDTLMISRTPEVTCVVVDVEHEDPEVKFNWYVDGVEVHNAKTKPREEQYNSTYRVVSVLTVLHQDWLNGKEYKCKVSNKALPAPEEKTISKAKGQPREPQVYTLPPSREEMTKNQVSLTCLVKGFYPSDIAVEWESNGQPENNYKTTPPVLDSDGSFFLYSKLTVDKSRWQQGNVFSCSVMHEALHNHYTQKSLSLSPGK light: DIVMTQSPATLSLSPGERATLSCRSSKSLQNVNGNTYLYWFQQKPGQSPQLLIYRMSNLNSGVPDRFSGSGSGTEFTLTISSLEPEDFAVYYCMQHLEYPITFGAGTKLEIKRTVAAPSVFIFPPSDEQLKSGTASVVCLLNNFYPREAKVQWKVDNALQSGNSQESVTEQDSKDSTYSLSSTLTLSKADYEKHKVYACEVTHQGLSSPVTKSFNRGEC	124	11.8	1	10	–
S239D/S267A/L328Y (antibody, human IgG1, kappa, HuAM4G7 anti-CD19 IgG1 (m1) with these Fc substitutions, EU index; copies: 2 + 2) heavy: EVQLVESGGGLVKPGGSLKLSCAASGYTFTSYVMHWVRQAPGKGLEWIGYINPYNDGTKYNEKFQGRVTISSDKSISTAYMELSSLRSEDTAMYYCARGTYYYGTRVFDYWGQGTLVTVSSASTKGPSVFPLAPSSKSTSGGTAALGCLVKDYFPEPVTVSWNSGALTSGVHTFPAVLQSSGLYSLSSVVTVPSSSLGTQTYICNVNHKPSNTKVDKKVEPKSCDKTHTCPPCPAPELLGGPDVFLFPPKPKDTLMISRTPEVTCVVVDVAHEDPEVKFNWYVDGVEVHNAKTKPREEQYNSTYRVVSVLTVLHQDWLNGKEYKCKVSNKAYPAPIEKTISKAKGQPREPQVYTLPPSREEMTKNQVSLTCLVKGFYPSDIAVEWESNGQPENNYKTTPPVLDSDGSFFLYSKLTVDKSRWQQGNVFSCSVMHEALHNHYTQKSLSLSPGK light: DIVMTQSPATLSLSPGERATLSCRSSKSLQNVNGNTYLYWFQQKPGQSPQLLIYRMSNLNSGVPDRFSGSGSGTEFTLTISSLEPEDFAVYYCMQHLEYPITFGAGTKLEIKRTVAAPSVFIFPPSDEQLKSGTASVVCLLNNFYPREAKVQWKVDNALQSGNSQESVTEQDSKDSTYSLSSTLTLSKADYEKHKVYACEVTHQGLSSPVTKSFNRGEC	19.8	74.1	46.5	6.46	–
H268D/A327D/L328Y (antibody, human IgG1, kappa, HuAM4G7 anti-CD19 IgG1 (m1) with these Fc substitutions, EU index; copies: 2 + 2) heavy: EVQLVESGGGLVKPGGSLKLSCAASGYTFTSYVMHWVRQAPGKGLEWIGYINPYNDGTKYNEKFQGRVTISSDKSISTAYMELSSLRSEDTAMYYCARGTYYYGTRVFDYWGQGTLVTVSSASTKGPSVFPLAPSSKSTSGGTAALGCLVKDYFPEPVTVSWNSGALTSGVHTFPAVLQSSGLYSLSSVVTVPSSSLGTQTYICNVNHKPSNTKVDKKVEPKSCDKTHTCPPCPAPELLGGPSVFLFPPKPKDTLMISRTPEVTCVVVDVSDEDPEVKFNWYVDGVEVHNAKTKPREEQYNSTYRVVSVLTVLHQDWLNGKEYKCKVSNKDYPAPIEKTISKAKGQPREPQVYTLPPSREEMTKNQVSLTCLVKGFYPSDIAVEWESNGQPENNYKTTPPVLDSDGSFFLYSKLTVDKSRWQQGNVFSCSVMHEALHNHYTQKSLSLSPGK light: DIVMTQSPATLSLSPGERATLSCRSSKSLQNVNGNTYLYWFQQKPGQSPQLLIYRMSNLNSGVPDRFSGSGSGTEFTLTISSLEPEDFAVYYCMQHLEYPITFGAGTKLEIKRTVAAPSVFIFPPSDEQLKSGTASVVCLLNNFYPREAKVQWKVDNALQSGNSQESVTEQDSKDSTYSLSSTLTLSKADYEKHKVYACEVTHQGLSSPVTKSFNRGEC	3.49	420	18.7	3.58	–
L234W/H268D/L328Y (antibody, human IgG1, kappa, HuAM4G7 anti-CD19 IgG1 (m1) with these Fc substitutions, EU index; copies: 2 + 2) heavy: EVQLVESGGGLVKPGGSLKLSCAASGYTFTSYVMHWVRQAPGKGLEWIGYINPYNDGTKYNEKFQGRVTISSDKSISTAYMELSSLRSEDTAMYYCARGTYYYGTRVFDYWGQGTLVTVSSASTKGPSVFPLAPSSKSTSGGTAALGCLVKDYFPEPVTVSWNSGALTSGVHTFPAVLQSSGLYSLSSVVTVPSSSLGTQTYICNVNHKPSNTKVDKKVEPKSCDKTHTCPPCPAPEWLGGPSVFLFPPKPKDTLMISRTPEVTCVVVDVSDEDPEVKFNWYVDGVEVHNAKTKPREEQYNSTYRVVSVLTVLHQDWLNGKEYKCKVSNKAYPAPIEKTISKAKGQPREPQVYTLPPSREEMTKNQVSLTCLVKGFYPSDIAVEWESNGQPENNYKTTPPVLDSDGSFFLYSKLTVDKSRWQQGNVFSCSVMHEALHNHYTQKSLSLSPGK light: DIVMTQSPATLSLSPGERATLSCRSSKSLQNVNGNTYLYWFQQKPGQSPQLLIYRMSNLNSGVPDRFSGSGSGTEFTLTISSLEPEDFAVYYCMQHLEYPITFGAGTKLEIKRTVAAPSVFIFPPSDEQLKSGTASVVCLLNNFYPREAKVQWKVDNALQSGNSQESVTEQDSKDSTYSLSSTLTLSKADYEKHKVYACEVTHQGLSSPVTKSFNRGEC	5.92	248	5.92	4.63	–
